Paper PMC12207370, “Macrocyclic Peptide Probes for Immunomodulatory Protein CD59: Potent Modulators of Bacterial Toxin Activity and Antibody‐Dependent Cytotoxicity” (Angewandte Chemie (International Ed. in English), 2025)

Target: T1, biotinylated CD59 (Homo sapiens, UniProt P13987)
T1 construct: Recombinant soluble human CD59 with an additional C-terminal cysteine residue
T1 sequence (P13987 26-102 limits assumed): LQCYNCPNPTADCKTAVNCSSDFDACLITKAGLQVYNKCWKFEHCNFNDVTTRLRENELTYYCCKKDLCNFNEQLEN
Test: mRNA-display cyclic peptide screen against CD59-biotin, NGS abundance after 6th selection round
Conditions: for Percentage Seq I: counts normalised by total counts of sample Seq I; for Percentage Seq I / Percentage Seq II: percentage of the pool; for Percentage Seq I / Percentage Seq II / Percentage Average / Percentage of the pool, averaged across the two sequencing samples / Percentage of the pool, Seq I / Percentage of the pool, Seq II: sheet R6; for Percentage Seq II: counts normalised by total counts of sample Seq II; for Percentage Average: percentage of the pool averaged across the two sequencing samples; for Counts Seq I / Counts Seq II: raw NGS counts of peptide sequence; for Counts Seq I: sequencing sample Seq I; for Counts Seq I / Counts Seq II / Counts (raw counts for peptide sequence), Seq I / Counts (raw counts for peptide sequence), Seq II: sheet R6 (6th selection round); for Counts Seq II: sequencing sample Seq II; for Counts (raw counts for peptide sequence), Seq I: NGS sample Seq I; for Counts (raw counts for peptide sequence), Seq II: NGS sample Seq II; for Percentage of the pool, averaged across the two sequencing samples: average of Seq I and Seq II; for Percentage of the pool, Seq I: counts normalised by total counts of NGS sample Seq I; for Percentage of the pool, Seq II: counts normalised by total counts of NGS sample Seq II
Procedure, shortened: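 Peptide–mRNA fusions were made by in vitro translation with a customised PURE express kit. The kit lacked release factor 1 and methionine and was supplemented with […] initiator tRNA carrying N-chloroacetyl-d-tyrosine. Thioether macrocycles were formed, then enriched and amplified over iterative rounds on CD59-biotin immobilised on streptavidin beads. NGS read counts per sequence were recorded after the 6th selection round.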

| Sequence | Percentage Seq I [%] | Percentage Seq II [%] | Percentage Average [%] | Counts Seq I | Counts Seq II | Counts (raw counts for peptide sequence), Seq I | Counts (raw counts for peptide sequence), Seq II | Percentage of the pool, averaged across the two sequencing samples [%] | Percentage of the pool, Seq I [%] | Percentage of the pool, Seq II [%] |
| --- | --- | --- | --- | --- | --- | --- | --- | --- | --- | --- |
| SSWAQLPCRR | 0.066 | 0.070 | 0.068 | 289 | 30 |  |  |  |  |  |
| ISGGRNWRAG |  |  |  |  |  | 65 | 6 | 0.014 | 0.015 | 0.014 |
| SKNGLTFLCS | 0.016 | 0.032 | 0.024 | 70 | 14 |  |  |  |  |  |
| FVTGNRDRTRG | 0.019 | 0.026 | 0.022 | 81 | 11 |  |  |  |  |  |
| GRRNECLSRTS |  |  |  |  |  | 68 | 3 | 0.011 | 0.016 | 0.007 |
| YARGDASHTIW | 0.043 | 0.056 | 0.049 | 186 | 24 |  |  |  |  |  |
| FVSGNSRFRRE | 0.062 | 0.070 | 0.066 | 270 | 30 |  |  |  |  |  |
| CFSSRTSLISGV |  |  |  |  |  | 27 | 6 | 0.010 | 0.006 | 0.014 |
| YIYWSFTSARG | 0.050 | 0.032 | 0.041 | 219 | 14 |  |  |  |  |  |
| HVFGDRSFTRG | 0.028 | 0.026 | 0.027 | 124 | 11 |  |  |  |  |  |
| TFAHRVGSCQST | 0.019 | 0.026 | 0.022 | 85 | 11 |  |  |  |  |  |
| FVTGNRDHTHG |  |  |  |  |  | 45 | 5 | 0.011 | 0.010 | 0.012 |
| FIRGNSTSVLC |  |  |  |  |  | 36 | 5 | 0.010 | 0.008 | 0.012 |
| FVMGNRDHTRG | 0.017 | 0.023 | 0.020 | 76 | 10 |  |  |  |  |  |
| CFYTRIDAFST | 0.081 | 0.079 | 0.080 | 354 | 34 |  |  |  |  |  |
| CYGGRTFIYAWL |  |  |  |  |  | 35 | 8 | 0.013 | 0.008 | 0.019 |
| CFTGRLSLDSI | 0.031 | 0.039 | 0.035 | 134 | 17 |  |  |  |  |  |
| HCWVRGSRSYT | 0.022 | 0.021 | 0.022 | 97 | 9 |  |  |  |  |  |
| SAWGNQQIQYY | 0.028 | 0.026 | 0.027 | 124 | 11 |  |  |  |  |  |
| IARGGRHFSSG |  |  |  |  |  | 46 | 4 | 0.010 | 0.011 | 0.009 |
